We go through 23 molecules from PMC12784346, “Paratope mapping of tilvestamab, an anti-AXL function-blocking antibody, using high-throughput bacterial expression of secreted scFv-osmY fusion proteins” (Bioscience Reports, 2025).

Residue numbers refer to the chain shown, from its start.

The labels stand for the following.
B1: parental tilvestamab scFv-osmY fusion protein (scFv, V domains shown)
VH: EVQLVESGGGLVQPGGSLRLSCAASGYSFTDFYINWVRQAPGKGLEWVARIFPGGDNTYYNEKFKGRFTLSADTSKSTAYLQMNSLRAEDTAVYYCARRGLYYAMDYWGQGTLVTVSS
VL: DIQMTQSPSSLSASVGDRVTITCRSSQSLVHSNGIPYLHWYQQKPGKAPKLLIYRVSNRFSGVPSRFSGSGSGTDFTLTISSLQPEDFATYYCSQGTHVPPTFGQGTKVEIK
notes: VH of tilvestamab (BGB149); numbers count on: the scFv-osmY fusion protein; linker between VH and VL, adapted from the vector pOPE101; VL of tilvestamab (BGB149); About 52 kDa; vector pET-22b(+); also called parental scFv-osmY; parental scFv; source: E. coli T7 expression strain, secreted, culture supernatant used directly; not shown: His6, C-terminal, kept
B2: tilvestamab scFv-osmY Y103A (scFv, V domains shown)
VH: B1 VH with Y102A
VL: B1 VL
notes: VH of tilvestamab, as the VH of m1; numbers count on: the scFv-osmY fusion protein; linker; VL of tilvestamab, as the VL of m1; source: E. coli T7 expression strain, secreted, culture supernatant used directly; not shown: His6, C-terminal, kept
B3: tilvestamab scFv-osmY F33Y (scFv, V domains shown)
VH: B1 VH with F32Y
VL: B1 VL
notes: as for B2
B4: tilvestamab scFv-osmY G101A (scFv, V domains shown)
VH: B1 VH with G100A
VL: B1 VL
notes: as for B2
B5: tilvestamab scFv-osmY T31A (scFv, V domains shown)
VH: B1 VH with T30A
VL: B1 VL
notes: as for B2
B6: tilvestamab scFv-osmY L102S (scFv, V domains shown)
VH: B1 VH with L101S
VL: B1 VL
notes: as for B2
B7: tilvestamab scFv-osmY G233A (scFv, V domains shown)
VH: B1 VH
VL: B1 VL with G96A
notes: VH of tilvestamab, as the VH of m1; linker; VL of tilvestamab, as the VL of m1; numbers count on: the scFv-osmY fusion protein; source: E. coli T7 expression strain, secreted, culture supernatant used directly; not shown: His6, C-terminal, kept
B8: tilvestamab scFv-osmY G233S (scFv, V domains shown)
VH: B1 VH
VL: B1 VL with G96S
notes: as for B7
B9: tilvestamab scFv-osmY L102Y (scFv, V domains shown)
VH: B1 VH with L101Y
VL: B1 VL
notes: as for B2
B10: tilvestamab scFv-osmY N195A (scFv, V domains shown)
VH: B1 VH
VL: B1 VL with N58A
notes: as for B7
B11: tilvestamab scFv-osmY D32A (scFv, V domains shown)
VH: B1 VH with D31A
VL: B1 VL
notes: as for B2
B12: tilvestamab scFv-osmY F33A (scFv, V domains shown)
VH: B1 VH with F32A
VL: B1 VL
notes: as for B2
B13: tilvestamab scFv-osmY Y103S (scFv, V domains shown)
VH: B1 VH with Y102S
VL: B1 VL
notes: as for B2
B14: tilvestamab scFv-osmY I35A (scFv, V domains shown)
VH: B1 VH with I34A
VL: B1 VL
notes: as for B2
B15: tilvestamab scFv-osmY F33T (scFv, V domains shown)
VH: B1 VH with F32T
VL: B1 VL
notes: as for B2
B16: tilvestamab scFv-osmY L102A (scFv, V domains shown)
VH: B1 VH with L101A
VL: B1 VL
notes: as for B2
B17: tilvestamab scFv-osmY M106A (scFv, V domains shown)
VH: B1 VH with M105A
VL: B1 VL
notes: as for B2
B18: tilvestamab scFv-osmY F33S (scFv, V domains shown)
VH: B1 VH with F32S
VL: B1 VL
notes: as for B2
B19: tilvestamab scFv-osmY L102T (scFv, V domains shown)
VH: B1 VH with L101T
VL: B1 VL
notes: as for B2
B20: tilvestamab scFv-osmY Y108A (scFv, V domains shown)
VH: B1 VH with Y107A
VL: B1 VL
notes: as for B2
B21: tilvestamab scFv-osmY Y191A (scFv, V domains shown)
VH: B1 VH
VL: B1 VL with Y54A
notes: as for B7
B22: tilvestamab scFv-osmY F53A (scFv, V domains shown)
VH: B1 VH with F52A
VL: B1 VL
notes: as for B2
B23: tilvestamab scFv-osmY P238A (scFv, V domains shown)
VH: B1 VH
VL: B1 VL with P101A
notes: as for B7

This assay deals with T1, AXL Ig1 domain fused to human Fc (Homo sapiens, UniProt P30530).
T1 construct: AXL receptor tyrosine kinase, human, Ig1 domain of the extracellular domain; Construct limits and production are in the Supplementary Information; also called AXL Ig1-Fc; AXL-Ig1-Fc
Nature of the assay: BLI; Octet RED96; His-tagged scFv-osmY captured on Ni-NTA tips from undiluted bacterial supernatant (600 s); AXL Ig1 domain Fc 5.6 ug/ml in kinetic buffer (0.02% Tween 20, 0.05% sodium azide, 0.1% BSA in PBS) as analyte; rat Axl-Fc as control; traces scored by eye (normal, fast, very fast, weak, weak fast, none). To be noted: one partner purified.
Consider B1, for which the binding result is “binds”. The value for B2 was “binds”; that for B3 was “binds”.

As to B4, the binding result was “binds”. The same measure for B5: “binds”.

For B6, the binding result was “binds”. The same measure for B7: “binds”.

In the case of B8, the binding result was “binds”.

B9: the binding result was “binds”.

Regarding B10, the binding result is listed as “binds”. With B11, the binding result is given as “binds”. The same measure for B12: “binds”. With B13, the binding result was “binds”. Consider B14, for which the binding result was “binds”. The value for B15 was “binds”; that for B16 was “binds”; that for B17 was “binds”. The value for B18 was “binds”; that for B19 was “binds”; that for B20 was “binds”. The value for B21 was “binds”; that for B22 was “binds”. Consider B23, for which the binding result is listed as “binds”.
